# According to paper PMC4370478, “Inhibition of Zn(II) Binding Type IA Topoisomerases by Organomercury Compounds and Hg(II)”:
# B1: 59-base stem-loop oligonucleotide (non-cleavable) (structured_DNA)
# DNA: GCCCTGAAAGATTATGGAATGGGATTAGGGTAAAGGAAGAGAGCATAATCTTTCAGGGC
# Target: E. coli topoisomerase I (ETOP) (Escherichia coli, UniProt P06612 1-865)
# Test: fluorescence anisotropy; 0.5 mM MgCl2; no inhibitor (Kd fitted, value not in the text held); 50 mM Tris-HCl pH 7.5, 100 mM NaCl, 0.1 mM EDTA, 0.5 mM MgCl2; 10-30 nM oligonucleotide; temperature not stated
# Conditions: label: 3' 6-carboxyfluorescein; hairpin, 16 bp stem
# Sequence of E. coli topoisomerase I (ETOP) (P06612 whole entry): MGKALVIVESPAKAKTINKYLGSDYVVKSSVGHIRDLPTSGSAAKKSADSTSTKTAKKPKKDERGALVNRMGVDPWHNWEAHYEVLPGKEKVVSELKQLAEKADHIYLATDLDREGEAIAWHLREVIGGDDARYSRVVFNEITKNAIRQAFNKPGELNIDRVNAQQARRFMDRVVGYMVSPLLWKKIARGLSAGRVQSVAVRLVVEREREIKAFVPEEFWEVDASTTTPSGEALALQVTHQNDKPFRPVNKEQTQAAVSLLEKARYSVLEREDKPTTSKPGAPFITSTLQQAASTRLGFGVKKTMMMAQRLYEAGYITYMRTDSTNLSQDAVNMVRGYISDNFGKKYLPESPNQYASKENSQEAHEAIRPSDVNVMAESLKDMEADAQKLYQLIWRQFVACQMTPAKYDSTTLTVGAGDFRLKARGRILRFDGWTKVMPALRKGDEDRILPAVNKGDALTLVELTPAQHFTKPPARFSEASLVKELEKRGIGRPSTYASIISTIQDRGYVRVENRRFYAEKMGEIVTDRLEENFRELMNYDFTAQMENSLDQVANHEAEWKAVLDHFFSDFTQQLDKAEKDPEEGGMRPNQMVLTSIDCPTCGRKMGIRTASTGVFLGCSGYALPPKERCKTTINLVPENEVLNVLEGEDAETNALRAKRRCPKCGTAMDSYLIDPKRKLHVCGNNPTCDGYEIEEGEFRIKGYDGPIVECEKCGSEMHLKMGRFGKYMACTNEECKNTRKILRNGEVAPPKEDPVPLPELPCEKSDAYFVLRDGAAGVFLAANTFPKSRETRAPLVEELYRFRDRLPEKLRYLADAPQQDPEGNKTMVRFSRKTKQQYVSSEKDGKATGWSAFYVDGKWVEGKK
binder,measurement,value
B1,binding result,binds
